Consider one molecule from patent US20220072120A1 (University of Washington, published 2022).

This experiment concerns the target A/Hong_Kong/4801/2014 (H3N2) HA 1-676 Y98F GG lkr dn5B.SA (influenza A virus A/Hong_Kong/4801/2014 …). In words: in vitro co-assembly; SEC, SDS-PAGE of elution peaks, negative-stain EM.

B1: I53-dn5 A (designed binder)
chain: MGKYDGSKLRIGILHARWNAEIILALVLGALKRLQEFGVKRENIIIETVPGSFELPYGSKLFVEKQKRLGKPLDAIIPIGVLIKGSTMHFEYICDSTTHQLMKLNFELGIPVIFGVLTCLTDEQAEARAGLIEGKMHNHGEDWGAAAVEMATKFN
Regarding B1, the binding result is “binds”.
